We go through 2 molecules from PMC7958122, “Insulin-Like Growth Factor Binding Protein-3 Exerts Its Anti-Metastatic Effect in Aerodigestive Tract Cancers by Disrupting the Protein Stability of Vimentin” (Cancers, 2021).

The target of this experiment is T1, recombinant IGFBP-3 protein (rBP3) of the in vitro binding assays with vimentin domains (human, UniProt P17936 28-291).
T1 construct: IGFBP-3, human, recombinant protein; by the pull-down methods it may be the purified His-IGFBP-3; source: recombinant
T1 sequence (P17936 28-291): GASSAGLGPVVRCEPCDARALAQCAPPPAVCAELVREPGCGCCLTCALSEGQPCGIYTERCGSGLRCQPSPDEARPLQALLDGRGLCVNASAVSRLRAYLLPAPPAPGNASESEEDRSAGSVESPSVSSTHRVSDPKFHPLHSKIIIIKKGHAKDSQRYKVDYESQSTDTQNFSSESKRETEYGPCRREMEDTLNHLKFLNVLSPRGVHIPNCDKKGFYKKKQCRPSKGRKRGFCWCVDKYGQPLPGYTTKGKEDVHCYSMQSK
In words: pull-down; in vitro binding: glutathione-agarose-bound GST-vimentin (full-length, domains or deletion mutants) incubated with purified recombinant IGFBP-3 or its C-terminal domain; TNE binding buffer, 4 °C; Western blot. The conditions noted are these: both partners purified. (In western blotting, separated proteins are transferred to a membrane and probed.)

B1: GST-tagged head domain of vimentin (1-101 aa) (domain or fragment, human, UniProt P08670 1-101, looked up)
chain: MSTRSVSSSSYRRMFGGPGTASRPSSSRSYVTTSTRTYSLGSALRPSTSRSLYASSPGGVYATRSSAVRLRSSVPGVRLLQDSVDFSLADAINTEFKNTRT
notes: vimentin, human, head domain, residues 1-101; source: bacterial expression (pGEX-4T-2), recombinant
Consider B1, for which the binding result was “binds”.

B2: GST-tagged vimentin coiled-coil domain deletion mutant ΔCC (1-101 linked with 411-467 aa) (domain or fragment, human, UniProt P08670 1-466, looked up)
chain: MSTRSVSSSSYRRMFGGPGTASRPSSSRSYVTTSTRTYSLGSALRPSTSRSLYASSPGGVYATRSSAVRLRSSVPGVRLLQDSVDFSLADAINTEFKNTRTISLPLPNFSSLNLRETNLDSLPLVDTHSKRTLLIKTVETRDGQVINETSQHHDDLE
notes: vimentin, human, head domain (1-101) ligated to tail domain (411-467 as printed); source: bacterial expression (pGEX-4T-2), recombinant
In the case of B2, the binding result is on record as “binds”.
